Data on seven molecules can be found in US20170128468A1, “PHOSPHATIDYLGLYCEROL AS AN ANTI-INFLAMMATORY” (Agusta University Research Institute, Inc., priority 2015, published 2017).

One assay relates to TPA-induced ear edema. Nature of the assay: Contact irritant (TPA) ear edema mouse in vivo model. As for the experimental part:
Experiments were performed as described in (27). Briefly, the ears of three to five male ICR CD-1 outbred mice [25-30 g; 5-6 weeks of age from Harlan Laboratories (Indianapolis, Ind.)] were treated with acetone or TPA (0.03% in acetone), and at 1 h and 4 h after TPA, the appropriate vehicle or the treatment in vehicle was applied to each ear. Ear thickness was measured using a caliper both before and at approximately 18-20 h after TPA treatment prior to sacrifice. After sacrifice, a circular ear punch biopsy (4 mm^2) was taken, weighed, and fixed in formalin. Histological evaluation included H&E staining and immunohistochemical staining for CD45 to quantify the number of infiltrating immune cells (see below).
Sections (10 μm) were cut from formalin-fixed paraffin-embedded ear biopsies and deparaffinized and rehydrated as described in (28). […] Multiple random sections (4 to 8 per mouse separately from the left and right ear) were counted by two independent observers in a blinded fashion, counts averaged to determine a value for each mouse ear and values statistically analyzed as described below.
Experiments were performed as described in Clark S P; Bollag W B; Westlund K N; Ma F; Falls G; Xie D; Johnson M; Isales C M; Bhattacharyya M H: Pine oil effects on chemical and thermal injury in mice and cultured mouse dorsal root ganglion neurons. […] Ear thickness was measured using a caliper both before and at approximately 18-20 h after TPA treatment prior to sacrifice. […] Histological evaluation included H&E staining and immunohistochemical staining for CD45 to quantify the number of infiltrating immune cells (see below).
Sections (10 μm) were cut from formalin-fixed paraffin-embedded ear biopsies and deparaffinized and rehydrated as described in (Voss K E et al., Arch. Dermatol. Res. 303 591-600 (2011)). […] Multiple random sections (4 to 8 per mouse separately from the left and right ear) were counted by two independent observers in a blinded fashion, counts averaged to determine a value for each mouse ear and values statistically analyzed as described below. […]

For assay [1], the system named is S100A9-induced inflammatory mediator expression in keratinocytes. As to the kind of experiment: qRT-PCR of inflammatory mediator mRNA in keratinocytes treated with recombinant S100A9 or LPS. It counts as cell-based, mouse. As for the experimental part:
(§1) Primary cultures of mouse epidermal keratinocytes were prepared from ICR strain CD-1 outbred neonatal mice 1-3 days of age as described in detail in (Bollag W B, et al., J Invest Derm 100 240-246 (1993); Griner R, et al., J Biol Chem, 274 4663-4670 (1999)). All procedures were approved by the Institutional Animal Care and Use Committee. RAW264.7 cells, a mouse macrophage-derived cell line, were kindly provided by Drs. Qing Zhong and Carlos Isales (Augusta University) and were cultured in DMEM containing 10% fetal bovine serum and 1% penicillin and streptomycin.
(§2) Keratinocytes were treated with or without TPA or a synthetic triacylated lipoprotein (Pam3CSK4), a TLR1/TLR2 agonist, or recombinant S100A9 (R&D Systems) or HSPB4 (MyBiosoruce) as indicated, for 2 hours in the presence and absence of different concentrations of soy PG or dioleoylphosphatidylglycerol (DOPG). Cells were harvested and RNA isolated using PerfectPure RNA tissue kits (5 PRIME, Inc, Gaithersburg, Md., USA) as per the manufacturer's protocol. Following verification of RNA integrity using a Nanodrop instrument (NanoDrop Technologies, Wilmington, Del.), RNA was reverse-transcribed to cDNA with iScript cDNA synthesis kits (Bio-Rad Laboratories, Hercules, Calif., USA) and analyzed by real-time PCR using Taqman primer/probe sets from Applied Biosystems (Life Technologies, Grand Island, N.Y.). Reactions were performed using Fast Reagent PCR Master Mix (Applied Biosystems) and a StepOnePlus Real-Time PCR System (Applied Biosystems) as instructed by the manufacturer. Expression of genes of interest was determined using the delta-delta Ct method normalized to the expression of GAPDH as the endogenous housekeeping gene and expressed relative to the appropriate control group.
Background: In qPCR the cycle at which signal appears reflects the starting amount.

For assay [2], the system named is NF-κB phosphorylation/activation in RAW264.7 cells. Nature of the assay: Western analysis of NF-κB phosphorylation/activation in RAW264.7 cells stimulated with Pam3CSK4. Conditions: 2.5 μg/mL Pam3CSK4 alone; 10 minutes; FIG. 9. It counts as cell-based, mouse. As for the experimental part: Membranes containing transferred proteins were blocked with 5% non-fat dry milk for at least 30 minutes before incubating with the appropriate primary antibodies, overnight, followed by washing and incubating with secondary antibodies for 1 h at room temperature. Immunoreactivity was visualized using infrared imaging on an Odyssey imaging system (LI-COR Biosciences, Lincoln, Nebr.).

Assay [3] relates to Pam3CSK4-induced inflammatory mediator expression in macrophage cell line RAW 264.7. As to the kind of experiment: qRT-PCR of inflammatory mediator mRNA in RAW 264.7 macrophage cell line treated with Pam3CSK4. It counts as cell-based, mouse. The conditions noted are these: Pam3CSK4 1 or 2.5 μg/mL alone; 2 h; FIGS. 3A-3D. As for the experimental part: as §1, §2
Assay [4] concerns Pam3CSK4-induced inflammatory mediator expression in keratinocytes. Nature of the assay: qRT-PCR of inflammatory mediator mRNA in keratinocytes treated with Pam3CSK4 (TLR1/2 agonist). It counts as cell-based, mouse. The conditions noted are these: agonist alone, in vitro. As for the experimental part:
as §1
as §2, with “Reactions were performed using Fast Reagent PCR Master Mix (Applied Biosystems) and a StepOnePlus Real-Time PCR System (Applied Biosystems) as instructed by the manufacturer. Expression of genes of interest was determined using the delta-delta Ct method normalized to the expression of GAPDH as the endogenous housekeeping gene and expressed relative to the appropriate control group.” left out

The test system of assay [5] is TNFα protein secretion by RAW264.7 cells. Nature of the assay: TNFα protein secretion by ELISA in RAW264.7 culture supernatants. It counts as cell-based, mouse. Conditions: DAMP alone (S100A9 2 μg/mL; HSPB4 0.1 or 1 μg/mL); 2 h; FIGS. 8A-8B. As for the experimental part: Cells were treated with recombinant S100A9 or recombinant HSPB4 as indicated and media collected. TNFα levels were determined in the supernatant using an ELISA kit (BD Biosciences) according to the manufacturer's instructions.
Mouse TNFα ELISA kits from BD Biosciences (San Jose, Calif.) were used. RAW264.7 cells were treated with or without recombinant S100A9 or HSPB4 in the presence and absence of DOPG for 2 hours. Cell culture supernatants were collected and stored at −80° C. and subjected to a single freeze-thaw cycle. The ELISA assay was performed according to the manufacturer's instructions with the optical density detected in each sample within 30 minutes, at a wavelength of 450 nm and corrected at 570 nm.
(In general: In an ELISA, binding on a coated surface is turned into a signal by an enzyme label.)

Assay [6] relates to HSPB4-induced inflammatory mediator expression in RAW cell line. As to the kind of experiment: qRT-PCR of inflammatory mediator mRNA in RAW 264.7 cells treated with recombinant HSPB4. In kind it is cell-based, mouse. The conditions noted are these: 0.1 or 1 μg/mL recombinant HSPB4 alone; 2 h; FIGS. 7A-7D. As for the experimental part:
as §1
as §2, with “Reactions were performed using Fast Reagent PCR Master Mix (Applied Biosystems) and a StepOnePlus Real-Time PCR System (Applied Biosystems) as instructed by the manufacturer. Expression of genes of interest was determined using the delta-delta Ct method normalized to the expression of GAPDH as the endogenous housekeeping gene and expressed relative to the appropriate control group.” left out

Assay [7] has as its system S100A9-induced inflammatory mediator expression in RAW 264.7 macrophage cell line. Nature of the assay: qRT-PCR of inflammatory mediator mRNA in RAW 264.7 cells treated with recombinant S100A9. It counts as cell-based, mouse. Conditions: 2 μg/mL recombinant S100A9 alone; 2 h; FIGS. 6A-6D. As for the experimental part:
as §1
as §2, with “Reactions were performed using Fast Reagent PCR Master Mix (Applied Biosystems) and a StepOnePlus Real-Time PCR System (Applied Biosystems) as instructed by the manufacturer. Expression of genes of interest was determined using the delta-delta Ct method normalized to the expression of GAPDH as the endogenous housekeeping gene and expressed relative to the appropriate control group.” left out

Where [8] appears, read: recombinant S100A9 alone, keratinocytes, data not shown.

`C=C1/C(=C\C=C2/CCC[C@]3(C)[C@@H]([C@H](C)CCCC(C)(C)O)CC[C@@H]23)C[C@@H](O)C[C@@H]1O` [1,25-dihydroxyvitamin D3]: the “effect on ear edema” value with TPA-induced ear edema (agent alone in 95% ethanol/5% water, applied 1 and 4 h after 0.03% TPA, FIGS. 10A-10C) is reported as “neither 1,25-dihydroxyvitamin D3 nor soy PG alone had a significant effect”.

Turning to phosphatidylglycerol [PG], in assay [1] (100 μg/mL DOPG with 3 μg/mL recombinant S100A9, 2 h, FIG. 5A), the “S100A9-induced expression of IL-1β” value is given as “inhibited”. Further, the “S100A9-induced expression of IL-6” value in assay [1] (100 μg/mL DOPG with 3 μg/mL recombinant S100A9, 2 h, FIG. 5B) is “inhibited”. Besides, in assay [1] (100 μg/mL DOPG with 3 μg/mL recombinant S100A9, 2 h, FIG. 5C), the “S100A9-induced expression of TNFα” value was “inhibited”.

For Pam3CSK4 [reference compound], the “phosphorylation/activation of NF-κB (pNFκB/NFκB ratio)” value in assay [2] is given as “increased”. Further, in assay [3], the “mRNA levels of IL1α, IL1β, IL6 and TNFα upon stimulation” value is “up-regulated”. In addition, in assay [4], the “inflammatory mediator expression in keratinocytes treated with TLR2 agonist” value is “increased”.

`CCCCCCCCCCCCCC(=O)O[C@@H]1[C@@H](C)[C@@]2(O)[C@@H](C=C(CO)C[C@]3(O)C(=O)C(C)=C[C@@H]23)[C@@H]2C(C)(C)[C@]12OC(C)=O` [TPA, 12-O-tetra-decanoylphorbol 13-acetate]: the “increase in ear thickness” value in the assay on TPA-induced ear edema (TPA alone, no subsequent treatment with vehicle, percent change from time 0) was found to be 147±16%. For the same molecule, the “increase in ear weight” value in the assay on TPA-induced ear edema (TPA alone, no subsequent treatment with vehicle, punch biopsy versus no-TPA mice) is 158±6%.

B1: HSPB4: recombinant small heat shock protein, a DAMP shown to mediate sterile corneal inflammation (protein, UniProt P02489 1-173, looked up)
Alpha-crystallin A chain: MDVTIQHPWFKRTLGPFYPSRLFDQFFGEGLFEYDLLPFLSSTISPYYRQSLFRTVLDSGISEVRSDRDKFVIFLDVKHFSPEDLTVKVQDDFVEIHGKHNERQDDHGYISREFHRRYRLPSNVDQSALSCSLSADGMLTFCGPKIQTGLDATHAERAIPVSREEKPTSAPSS
For B1, the TNFα protein secretion entry in assay [5] was “induce”. Besides, in assay [6], the “inflammatory mediator expression (IL1α, IL1β, IL6, TNFα mRNA)” value is reported as “stimulate”.

B2: S100A9: recombinant anti-microbial protein, a DAMP that activates TLR2 (as well as TLR4) (protein, UniProt P06702 1-114, looked up)
Protein S100-A9: MTCKMSQLERNIETIINTFHQYSVKLGHPDTLNQGEFKELVRKDLQNFLKKENKNEKVIEHIMEDLDTNADKQLSFEEFIMLMARLTWASHEKMHEGDEGPGHHHKPGLGEGTP
Take B2: the “inflammatory mediator expression (IL1α, IL1β, IL6, TNFα mRNA)” value in assay [7] is given as “increases”. Also, the TNFα protein secretion entry in assay [5] is recorded as “induce”. Moreover, in assay [1] (S100A9 alone, keratinocytes), the IL-1α expression entry is recorded as “only minimally stimulated”. For the same molecule, the “expression of IL1β” value in assay [1] (recombinant S100A9 alone, 1 to 3 μg/mL, 2 h, FIG. 4B) is reported as “stimulated”. Moreover, the “expression of IL6” value in assay [1] (recombinant S100A9 alone, 1 to 3 μg/mL, 2 h, FIG. 4C) was “stimulated”. In assay [1] (recombinant S100A9 alone, 1 to 3 μg/mL, 2 h, FIG. 4D), the “expression of TNFα” value is “stimulated”. Further, in assay [1] (setting [8]), the “expression of TLR1” value is “induced” and the “expression of TLR2” value was “induced”.

B3: denatured (heated) S100A9: heat-denatured recombinant S100A9 protein (protein, UniProt P06702 1-114, looked up)
Protein S100-A9: B2 Protein S100-A9
modifications: heat-denatured
notes: heat-denatured recombinant S100A9 protein
As to B3, the “stimulating inflammatory mediator mRNA levels, relative to native S100A9” value in assay [1] (denatured (heated) protein, keratinocytes) is given as “significantly less effective”.
